Where a chain is given by its changes, count along the chain named. Names may count otherwise. “And” between values parts separate entries of the source, which are not always exact repeats. Identical values can stand only once. Like-named read-outs stand apart in the source and are kept apart here.
B1: C35S Cox11-Trx (domain or fragment, Rhodobacter sphaeroides, UniProt P56940 32-191, looked up)
chain: NWFSRVTGFAGTTAVATEAPAEVLDRTVKVRFDASREAGMPWEFRPLQREMKLKIGETGLAFYEAYNPTDRTVAGTASYNVTPDAAGGYFAKIACFCFTEQVLAPGERVEMPVTFYVDPAIIDDPDGRYVRQITLSYTFHETALTEEQAALAAESATDVN
B2: K123L Cox11-Trx (domain or fragment, Rhodobacter sphaeroides, UniProt P56940 32-191, looked up)
chain: B1 chain with S4C, K92L
B3: K123L-E131K Cox11-Trx (domain or fragment, Rhodobacter sphaeroides, UniProt P56940 32-191, looked up)
chain: B1 chain with S4C, K92L, E100K
B4: C126A Cox11-Trx (domain or fragment, Rhodobacter sphaeroides, UniProt P56940 32-191, looked up)
chain: B1 chain with S4C, C95A
B5: C128A Cox11-Trx (domain or fragment, Rhodobacter sphaeroides, UniProt P56940 32-191, looked up)
chain: B1 chain with S4C, C97A
B6: C126A-C128A Cox11-Trx (domain or fragment, Rhodobacter sphaeroides, UniProt P56940 32-191, looked up)
chain: B1 chain with S4C, C95A, C97A
B7: C35S-C126A-C128A Cox11-Trx (domain or fragment, Rhodobacter sphaeroides, UniProt P56940 32-191, looked up)
chain: B1 chain with C95A, C97A
B8: F127I Cox11-Trx (domain or fragment, Rhodobacter sphaeroides, UniProt P56940 32-191, looked up)
chain: B1 chain with S4C, F96I
B9: F127Y Cox11-Trx (domain or fragment, Rhodobacter sphaeroides, UniProt P56940 32-191, looked up)
chain: B1 chain with S4C, F96Y
B10: F129Y Cox11-Trx (domain or fragment, Rhodobacter sphaeroides, UniProt P56940 32-191, looked up)
chain: B1 chain with S4C, F98Y
B11: K123E Cox11-Trx (domain or fragment, Rhodobacter sphaeroides, UniProt P56940 32-191, looked up)
chain: B1 chain with S4C, K92E
B12: K123R Cox11-Trx (domain or fragment, Rhodobacter sphaeroides, UniProt P56940 32-191, looked up)
chain: B1 chain with S4C, K92R
B13: E131K Cox11-Trx (domain or fragment, Rhodobacter sphaeroides, UniProt P56940 32-191, looked up)
chain: B1 chain with S4C, E100K
B14: Y110R Cox11-Trx (domain or fragment, Rhodobacter sphaeroides, UniProt P56940 32-191, looked up)
chain: B1 chain with S4C, Y79R
B15: Y110E Cox11-Trx (domain or fragment, Rhodobacter sphaeroides, UniProt P56940 32-191, looked up)
chain: B1 chain with S4C, Y79E
B16: Cox11 domain of R. sphaeroides Cox11-Trx after cleavage from Trx (domain or fragment, Rhodobacter sphaeroides, UniProt P56940 32-191, looked up)
chain: B1 chain with S4C

Assays:
Assay in all cases: SEC
[1] = molecular target: yeast Cox11-Trx (fusion of the extramembrane domain of yeast Cox11 with E. coli thioredoxin) (yeast)
SEC [2] = molecular target: the molecule itself
SEC [3] = molecular target: the molecule itself; remark: listed apart in the source

Molecule | stoichiometry N [1] | stoichiometry N (SEC [2]) | stoichiometry N (SEC [3])
yeast Cox11-Trx (fusion of the extramembrane domain of yeast Cox11 with E. coli thioredoxin) (domain or fragment) | 2 and 4 | – | –
B1 | – | 2 and 4 | –
B2 | – | 2 | 4
B3 | – | 2 | 4
B4 | – | – | 4
B5 | – | – | 4
B6 | – | – | 4
B7 | – | – | 4
B8 | – | – | 4
B9 | – | – | 4
B10 | – | – | 4
B11 | – | – | 4
B12 | – | – | 4
B13 | – | – | 4
B14 | – | 4 | –
B15 | – | 4 | –
B16 | – | 4 | –
